Experimental data as given in patent US20160185837A1, “GIP AND GLP-1 RECEPTOR DUAL-AGONISTS FOR THE TREATMENT OF DIABETES” (Medimmune Limited, priority 2013, published 2016).
Ends that are not written are not given here.

T1: human GIP receptor (human) (UniProt P48546)
T1 sequence (looked up): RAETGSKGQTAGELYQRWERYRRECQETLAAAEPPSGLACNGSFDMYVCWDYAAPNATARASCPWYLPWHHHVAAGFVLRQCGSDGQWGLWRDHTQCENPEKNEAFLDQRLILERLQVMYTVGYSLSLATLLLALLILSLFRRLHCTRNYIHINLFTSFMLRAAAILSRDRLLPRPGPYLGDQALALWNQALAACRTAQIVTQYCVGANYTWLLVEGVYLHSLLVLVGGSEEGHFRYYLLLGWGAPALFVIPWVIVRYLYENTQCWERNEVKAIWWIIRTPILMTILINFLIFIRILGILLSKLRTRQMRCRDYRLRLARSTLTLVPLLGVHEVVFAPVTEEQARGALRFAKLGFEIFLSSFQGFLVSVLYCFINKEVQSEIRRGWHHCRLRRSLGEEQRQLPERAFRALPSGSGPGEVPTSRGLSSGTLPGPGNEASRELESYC

T2: mouse GIP receptor (mouse) (UniProt Q0P543)
T2 sequence (looked up): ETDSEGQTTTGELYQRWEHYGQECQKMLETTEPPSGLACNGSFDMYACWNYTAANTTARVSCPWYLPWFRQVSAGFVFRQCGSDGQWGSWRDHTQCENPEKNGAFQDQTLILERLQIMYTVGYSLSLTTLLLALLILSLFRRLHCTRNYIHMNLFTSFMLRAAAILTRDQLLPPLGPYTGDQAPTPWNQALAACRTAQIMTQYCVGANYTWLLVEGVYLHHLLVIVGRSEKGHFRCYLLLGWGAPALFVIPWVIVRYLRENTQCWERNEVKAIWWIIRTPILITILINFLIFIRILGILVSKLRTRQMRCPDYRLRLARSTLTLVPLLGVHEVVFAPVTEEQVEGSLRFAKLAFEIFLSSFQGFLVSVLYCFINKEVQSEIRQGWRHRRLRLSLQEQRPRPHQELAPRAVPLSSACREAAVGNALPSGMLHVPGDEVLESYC

T3: rat GIP receptor (rat) (UniProt P43219)
T3 sequence (looked up): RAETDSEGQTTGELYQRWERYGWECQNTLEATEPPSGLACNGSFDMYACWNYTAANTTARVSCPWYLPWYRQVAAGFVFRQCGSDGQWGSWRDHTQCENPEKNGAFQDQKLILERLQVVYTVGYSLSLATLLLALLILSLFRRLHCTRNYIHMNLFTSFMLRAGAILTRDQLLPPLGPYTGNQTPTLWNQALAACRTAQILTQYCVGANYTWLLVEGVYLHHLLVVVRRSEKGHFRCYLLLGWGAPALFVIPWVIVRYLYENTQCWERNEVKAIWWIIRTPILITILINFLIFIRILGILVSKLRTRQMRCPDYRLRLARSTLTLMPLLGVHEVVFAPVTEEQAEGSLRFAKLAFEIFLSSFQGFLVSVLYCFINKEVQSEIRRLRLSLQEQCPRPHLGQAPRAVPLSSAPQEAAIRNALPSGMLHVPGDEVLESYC


Legend:
Assay in all cases: cell-based or functional assay
[1] = molecular target: T1, human GIP receptor (human)
[2] = molecular target: human GLP-1 receptor (human) (UniProt P43220)
[3] = molecular target: human glucagon receptor (human) (UniProt P47871)
[4] = molecular target: T2, mouse GIP receptor (mouse)
[5] = molecular target: mouse GLP-1 receptor (mouse) (UniProt O35659)
[6] = molecular target: T3, rat GIP receptor (rat)
[7] = molecular target: rat GLP-1 receptor (rat) (UniProt P32301)
[8] = molecular target: cynomolgus monkey GLP-1 receptor (cynomolgus monkey) (UniProt F8V479)
[9] = molecular target: cynomolgus monkey glucagon receptor (cynomolgus monkey)

Chain of rat GLP-1 receptor (rat) (P32301 22-463): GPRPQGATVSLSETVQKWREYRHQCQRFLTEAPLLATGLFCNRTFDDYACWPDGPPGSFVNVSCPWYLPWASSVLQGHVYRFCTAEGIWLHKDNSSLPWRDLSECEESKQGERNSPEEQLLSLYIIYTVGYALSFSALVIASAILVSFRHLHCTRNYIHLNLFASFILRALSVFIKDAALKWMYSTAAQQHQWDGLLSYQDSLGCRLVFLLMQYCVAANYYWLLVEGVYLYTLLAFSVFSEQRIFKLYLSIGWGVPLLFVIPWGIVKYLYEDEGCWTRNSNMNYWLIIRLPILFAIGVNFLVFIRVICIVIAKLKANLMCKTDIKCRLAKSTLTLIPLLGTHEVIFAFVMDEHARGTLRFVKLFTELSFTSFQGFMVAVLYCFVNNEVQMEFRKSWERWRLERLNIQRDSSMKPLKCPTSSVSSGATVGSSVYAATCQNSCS
Chain of mouse GLP-1 receptor (mouse) (O35659 22-463): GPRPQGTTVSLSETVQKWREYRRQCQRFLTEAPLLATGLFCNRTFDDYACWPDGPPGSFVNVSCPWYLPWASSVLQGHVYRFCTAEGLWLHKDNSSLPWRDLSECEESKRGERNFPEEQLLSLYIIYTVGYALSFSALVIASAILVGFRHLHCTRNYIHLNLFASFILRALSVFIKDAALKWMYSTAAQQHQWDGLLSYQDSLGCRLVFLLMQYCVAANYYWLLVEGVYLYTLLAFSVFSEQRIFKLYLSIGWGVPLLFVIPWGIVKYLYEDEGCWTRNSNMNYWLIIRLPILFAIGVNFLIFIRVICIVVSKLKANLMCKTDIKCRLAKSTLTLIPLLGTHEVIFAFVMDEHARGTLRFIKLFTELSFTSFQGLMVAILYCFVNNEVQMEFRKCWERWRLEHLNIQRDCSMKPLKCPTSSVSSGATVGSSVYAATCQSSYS
Chain of human GLP-1 receptor (human) (P43220 24-463): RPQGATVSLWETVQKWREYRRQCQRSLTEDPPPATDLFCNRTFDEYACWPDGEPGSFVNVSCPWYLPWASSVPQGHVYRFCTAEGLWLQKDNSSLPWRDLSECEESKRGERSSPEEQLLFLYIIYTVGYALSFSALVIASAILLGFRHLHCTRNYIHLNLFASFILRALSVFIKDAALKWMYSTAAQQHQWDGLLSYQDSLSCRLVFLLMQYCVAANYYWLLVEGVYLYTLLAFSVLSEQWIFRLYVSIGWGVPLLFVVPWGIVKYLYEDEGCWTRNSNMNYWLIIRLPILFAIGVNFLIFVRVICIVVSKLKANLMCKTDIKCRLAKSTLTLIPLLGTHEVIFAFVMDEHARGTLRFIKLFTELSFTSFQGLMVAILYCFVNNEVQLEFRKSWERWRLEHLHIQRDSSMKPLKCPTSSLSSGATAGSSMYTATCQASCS
Chain of human glucagon receptor (human) (P47871 26-477): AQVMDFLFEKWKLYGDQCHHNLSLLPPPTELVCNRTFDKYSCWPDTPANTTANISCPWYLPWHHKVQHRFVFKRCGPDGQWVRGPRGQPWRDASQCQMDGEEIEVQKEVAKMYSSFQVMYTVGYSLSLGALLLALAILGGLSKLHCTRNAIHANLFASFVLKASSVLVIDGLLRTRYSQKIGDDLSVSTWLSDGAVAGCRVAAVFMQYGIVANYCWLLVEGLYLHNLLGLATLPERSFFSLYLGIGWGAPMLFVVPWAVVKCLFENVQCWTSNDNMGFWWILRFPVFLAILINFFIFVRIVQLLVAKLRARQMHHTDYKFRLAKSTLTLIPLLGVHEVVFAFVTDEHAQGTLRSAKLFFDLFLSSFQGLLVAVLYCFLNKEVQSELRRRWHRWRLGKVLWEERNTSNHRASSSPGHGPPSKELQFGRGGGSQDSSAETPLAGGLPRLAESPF
Chain of cynomolgus monkey GLP-1 receptor (cynomolgus monkey) (F8V479 entry or part of it): as the sequence (P43220 24-463) above, with S112N, F120S, S202G, L205V, L237F, W241R, I249V counted along it

Binder	cAMP EC50 [1] [nM]	cAMP EC50 [2] [nM]	cAMP EC50 [3] [nM]	cAMP EC50 [4] [nM]	cAMP EC50 [5] [nM]	cAMP EC50 [6] [nM]	cAMP EC50 [7] [nM]	cAMP EC50, hGIPr (C3) line [1] [nM]	cAMP EC50, 4.2% cyno serum albumin [8] [nM]	cAMP EC50, 4.2% cyno serum albumin [9] [nM]
IP301 (Fc fusion) YSEGTFTSDVSSYLEREAIDEFIAWLLKGGAAAGGSGSTASSGSGSATGGGGAATHTCPPC	0.12	0.31	12000	22	1.9	4.7	0.058	–	–	–
IP306 (Fc fusion) YSEGTFTSDYSKLLERQAIDEFIAWLLKGGAAAGGSGSTASSGSGSATGGGGAATHTCPPC	0.011	0.1	220	0.25	0.25	0.026	0.015	–	–	–
IP309 (Fc fusion) YSEGTFISDVSSYLERQAIDEFIAWLLKGGAAAGGSGSTASSGSGSATGGGGAATHTCPPC	0.086	7.7	900	15	16	1.3	1.7	–	–	–
IP307 (Fc fusion) YSEGTFTSDVSSYMERQAIDEFIAWLLKQGAAAGGSGSTASSGSGSATGGGGAATHTCPPC	0.091	1.6	4100	31	6.5	5.2	0.21	–	–	–
IP310 (Fc fusion) YSEGTFTSDVSSYMERQAIDEFIAWLLKGKAAAGGSGSTASSGSGSATGGGGAATHTCPPC	0.15	0.35	3700	31	1.4	5.2	0.038	–	–	–
HGEGTFTSDVSSYLEEQAAKEFIAWLVKGR (Fc fusion, not shown: a dimerising Fc or GST, also: fused to linker, hinge and IgG4 Fc (not given here)) [GLP-1 analogue-Fc (gamma4) fusion control]	–	–	–	–	–	–	–	–	0.011	> 1000

Continued, values first:

cAMP EC50 [1] [nM]	cAMP EC50 [2] [nM]	cAMP EC50 [3] [nM]	cAMP EC50 [4] [nM]	cAMP EC50 [5] [nM]	cAMP EC50 [6] [nM]	cAMP EC50 [7] [nM]	cAMP EC50, hGIPr (C3) line [1] [nM]	cAMP EC50, 4.2% cyno serum albumin [8] [nM]	cAMP EC50, 4.2% cyno serum albumin [9] [nM]	Binder
0.011	0.061	43	8.3	0.2	0.039	0.04	–	–	–	IP359 (Fc fusion) YSEGTFTSDYSKLLEEEAVRLFIEHLLAGGGGGGSGGGGSGGGGSGGGGSATHTCPPC
0.0084	0.11	25	6.6	1.2	0.06	0.031	–	–	–	IP380 (Fc fusion) YSEGTFTSDYSKLLEEEAVRLFIEFLLAGGGGGGSGGGGSGGGGSGGGGSATHTCPPC
–	0.073	> 440	0.4	1.2	0.018	0.022	1.3	–	–	IP412 (Fc fusion) YSEGTFTSDYSKLLEEEANRLFIEWLLAGGGGGGSGGGGSGGGGSGGGGSATHTCPPC
0.0099	0.091	18	5.4	0.73	0.045	0.027	–	–	–	IP381 (Fc fusion) YSEGTFTSDYSKLLEEEAVRLFIEYLLAGGGGGGSGGGGSGGGGSGGGGSATHTCPPC
0.0098	0.18	23	0.091	1.6	0.012	0.05	–	–	–	IP339 (Fc fusion) YSEGTFTSDYSKLLEKEAQRLFIEWLLAGGGGGGGSGGGGSGGGGSGGGGSGGGGSGGGGSA
0.011	1.4	> 1430	2.6	9	0.06	0.18	–	–	–	IP329 (Fc fusion) YSEGTFTSDYSKLLERQAIDEFIAELLKGGGGGGGSGGGGSGGGGSGGGGSGGGGSGGGGSA
0.024	> 5460	280	0.36	> 5460	0.096	13	–	–	–	IP315 (Fc fusion) YSEGTFISDYSSYLERQAIDEFIAWLLKGGAAAGGSGSTASSGSGSATGGGGAATHTCPPC
0.048	> 5310	> 5310	16	> 1060	1.2	5.4	–	–	–	IP312 (Fc fusion) YSEGTFISDVSSYMERQAIDEFIAWLLKGGAAAGGSGSTASSGSGSATGGGGAATHTCPPC
